# Assay results published in patent publication US20200297860 (published 2020).
# T1: human mesothelin (human, UniProt Q13421)
# T1 chain: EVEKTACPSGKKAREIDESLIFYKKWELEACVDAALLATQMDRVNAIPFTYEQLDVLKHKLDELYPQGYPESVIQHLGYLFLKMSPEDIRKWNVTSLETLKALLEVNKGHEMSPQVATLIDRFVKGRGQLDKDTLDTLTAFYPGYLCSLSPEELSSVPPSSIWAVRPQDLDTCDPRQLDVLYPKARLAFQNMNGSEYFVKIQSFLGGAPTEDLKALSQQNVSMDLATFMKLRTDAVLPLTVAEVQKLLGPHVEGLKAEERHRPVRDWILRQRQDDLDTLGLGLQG
# B1: MORAb003-DBCO-PEG2 eribulin (antibody, V domains shown)
# VH: EVQLVESGGGVVQPGRSLRLSCSASGFTFSGYGLSWVRQAPGKGLEWVAMISSGGSYTYYADSVKGRFAISRDNAKNTLFLQMDSLRPEDTGVYFCARHGDDPAWFAYWGQGTPVTVSS
# VL: DIQLTQSPSSLSASVGDRVTITCSVSSSISSNNLHWYQQKPGKAPKPWIYGTSNLASGVPSRFSGSGSGTDYTFTISSLQPEDIATYYCQQWSSYPYMYTFGQGTKVEIK
# B2: MORAb003-ER1236941 (antibody, V domains shown)
# VH: B1 VH
# VL: B1 VL
# B3: MORAb003-DBCO-ER1138856 (antibody, V domains shown)
# VH: B1 VH
# VL: B1 VL
# B4: MORAb003-DBCO-PEG4 eribulin (antibody, V domains shown)
# VH: B1 VH
# VL: B1 VL
# B5: MORAb003-ER1235638 (antibody, V domains shown)
# VH: B1 VH
# VL: B1 VL
# B6: MORAb003-DBCO-PEG4 VCP eribulin (antibody, V domains shown)
# VH: B1 VH
# VL: B1 VL
# B7: 111B10-zu (antibody, V domains shown)
# VH: EVQLVESGGGLVQPGGSLRLSCAASGFSLNNYAMSWVRQAPGKGLEWIGSISTGGLAFYANWAKGRFTISRDNSKNTLYLQMNSLRAEDTAVYYCARNGGGSYIFYYFDLWGQGTLVTVSS
# VL: DIQMTQSPSSLSASVGDRVTITCQASQSISSYLSWYQQKPGKAPKLLIYSASTLASGVPSRFSGSGSGTDFTLTISSLQCEDAATYYCQSYYDIGTSTFGGGTKVEIK
# B8: 346C6-zu (antibody, V domains shown)
# VH: EVQLVESGGGLVQPGGSLRLSCAASGFSLSSYAMIWVRQAPGKGLEWIGTISTGGITYYASWAKGRFTISRDNSKNTLYLQMNSLRAEDTAVYYCARGGYAASSAYYLPYYFDLWGQGTLVTVSS
# VL: DIQMTQSPSSLSASVGDRVTITCQSSQSVYNNNNLAWYQQKPGKVPKLLIYLASTLASGVPSRFSGSGSGTDFTLTISSLQCEDAATYYCLGGCDDDADTFAFGGGTKVEIK
# Biological target: human folate receptor alpha (human)
# Sequence (P15328 whole entry): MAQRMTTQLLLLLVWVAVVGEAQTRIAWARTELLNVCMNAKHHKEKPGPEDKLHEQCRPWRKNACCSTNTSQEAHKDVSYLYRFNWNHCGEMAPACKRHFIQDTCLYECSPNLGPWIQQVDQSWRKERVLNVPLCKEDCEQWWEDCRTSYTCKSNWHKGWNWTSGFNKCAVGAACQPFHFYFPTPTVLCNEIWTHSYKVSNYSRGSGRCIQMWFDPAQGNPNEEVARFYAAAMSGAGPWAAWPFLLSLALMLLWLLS
# Experiment: ELISA
row,EC50 [µg/mL],Binder
1,0.0191,B1
2,0.013,B2
3,0.015,B3
4,0.0133,B4
5,0.0153,B5
6,0.016,B6

# Biological target: T1, human mesothelin
# Experiment: SPR
row,Kd [nM],Binder
1,6.5,B7
2,8.9,B8
